Source: patent US6468985B1, “Retinoblastoma protein-interacting zinc finger proteins” (The Burnham Institute, priority 1994, dated 2002)

What was measured:
[1] = biological target: T1, Rb from HT1080 cell extract (Homo sapiens, UniProt P06400); experiment: GST-RIZ (215-462) glutathione-agarose pull-down of Rb from cell extract, anti-Rb immunoblot; format: binding; conditions: cell lysate from 293 stably transfected to express E1A as source
T1 construct: endogenous in cells; host or cells: HT1080 cells (lysate)
T1 sequence (P06400 1-928): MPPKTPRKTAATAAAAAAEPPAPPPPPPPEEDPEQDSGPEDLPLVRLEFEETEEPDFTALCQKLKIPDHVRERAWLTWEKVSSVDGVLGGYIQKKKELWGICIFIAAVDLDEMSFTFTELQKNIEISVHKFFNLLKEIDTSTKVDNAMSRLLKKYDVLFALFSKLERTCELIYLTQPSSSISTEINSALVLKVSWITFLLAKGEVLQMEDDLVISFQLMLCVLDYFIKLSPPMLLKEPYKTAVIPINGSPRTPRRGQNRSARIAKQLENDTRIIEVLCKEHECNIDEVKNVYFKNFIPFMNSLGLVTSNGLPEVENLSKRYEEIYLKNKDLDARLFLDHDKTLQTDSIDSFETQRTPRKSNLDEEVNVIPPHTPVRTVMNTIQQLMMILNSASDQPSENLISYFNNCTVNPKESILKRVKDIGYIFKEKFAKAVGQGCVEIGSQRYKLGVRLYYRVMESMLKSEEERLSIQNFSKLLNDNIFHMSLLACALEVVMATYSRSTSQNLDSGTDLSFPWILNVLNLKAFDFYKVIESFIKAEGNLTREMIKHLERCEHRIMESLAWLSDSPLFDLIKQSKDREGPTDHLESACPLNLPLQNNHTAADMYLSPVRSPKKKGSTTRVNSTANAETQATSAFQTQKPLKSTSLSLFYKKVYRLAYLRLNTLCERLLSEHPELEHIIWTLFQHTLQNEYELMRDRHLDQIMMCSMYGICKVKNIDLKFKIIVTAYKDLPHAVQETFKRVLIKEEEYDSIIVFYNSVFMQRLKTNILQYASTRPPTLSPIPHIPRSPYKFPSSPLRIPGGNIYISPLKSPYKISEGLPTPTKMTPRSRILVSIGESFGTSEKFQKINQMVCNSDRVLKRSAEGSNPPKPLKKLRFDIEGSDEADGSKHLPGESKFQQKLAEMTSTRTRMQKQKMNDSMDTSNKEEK
Experimental: Rat RIZ was tested for binding to Rb in HT1080 cells (ATCC #ICCL 121). The cells were grown in DMEM supplemented with […]. Cells were lysed in ELB buffer (50 mM HEPES, pH 7.5, 250 mM NaCl, 0.1% NP-40) supplemented with 5 mM EDTA, 50 mM NaF, 1 mM Na orthovanadate, 1 mM of DTT, aprotinin, leupeptin, and PMSF. The lysate was cleared of cell debris by centrifugation at 12,000 rpm for 10 min in a microfuge.
Binding between 4 μg GST-RIZ (215-462) and Rb from HT1080 cell extract was evaluated by first mixing the two, then binding GST-RIZ and any associated Rb to glutathione-agarose beads. The beads were washed in binding buffer and the bound complexes were eluted by boiling in SDS buffer and analyzed by immunoblotting with anti-Rb antiserum. Immunoblotting was performed by standard techniques (see, for example, Harlow and Lane, supra, 1988).

[2] = biological target: T2, RIZ GTPase domain (GST-G) (Rattus norvegicus, UniProt Q63755); experiment: competition of unlabeled nucleotides for GTP binding of RIZ GTPase domain; conditions: 20 mM unlabeled nucleotide, 1 hr before α-32P-GTP
T2 construct: a fragment of RIZ from amino acid position 760-949 (RIZ 760-949), containing the putative GTPase domain; made in house; E. coli XL-1 blue is printed only for pKG7.1S)
T2 sequence (Q63755 760-949): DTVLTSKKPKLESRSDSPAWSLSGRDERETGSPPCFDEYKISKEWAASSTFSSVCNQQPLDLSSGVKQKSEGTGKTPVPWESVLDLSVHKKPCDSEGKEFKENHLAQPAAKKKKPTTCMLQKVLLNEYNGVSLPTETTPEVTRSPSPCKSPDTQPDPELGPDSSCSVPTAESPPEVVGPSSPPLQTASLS
Experimental: The GTPase domain of RIZ, which was defined by sequence homology, was evaluated to determine if it was functionally active. For these studies, a fragment of RIZ from amino acid position 760-949 (RIZ 760-949), containing the putative GTPase domain was expressed as a fusion to GST from the plasmid pKG-G and tested for binding to radiolabeled nucleotides. pKG-G was produced by PCR amplification of the nucleotide sequence encoding RIZ (760-949) using primers 5′-TCTCCACAGC ACAGCCCT-3′ (SEQ ID NO: 15), and 5′-GGATAAGGAG GCTGTCTG-3′ (SEQ ID NO: 16) and PCMVRIZ as template. The fragment was cloned into pBSK+ and then into PGEX-KG, expressed and purified by glutathionine-agarose as described above. GST was also expressed from vector PGEX-KG and purified as described above.
To measure GTP-binding, 0.5 μg of GST-RIZ or control GST proteins were separated by SDS-PAGE and blotted onto nitrocellulose. Proteins were renatured in GTP-binding buffer (50 mM Tris-HCl, pH8, 100 mM KCl, 10% glycerol, 0.1% Triton X-100, and 2 mM […]). The nitrocellulose was incubated for 30 min in GTP-binding buffer and then for 2 hr in GTP-binding buffer containing 1 μM α-^32P-GTP (800 Ci/mmol). The nitrocellulose was washed 5 times in GTP-binding buffer, dried and autoradiographed. In some samples, 20 mM unlabeled nucleotides were incubated with the nitrocellulose for 1 hr prior to the addition of α-^32P-GTP.

[3] = biological target: T3, wild-type full length Rb (A9), 35S-labeled (UniProt P06400 2-928, limits assumed, 35S label); experiment: preformed complex tested with anti-ce1
T3 construct: mature; also called wt-Rb; wild-type Rb
T3 sequence (looked up): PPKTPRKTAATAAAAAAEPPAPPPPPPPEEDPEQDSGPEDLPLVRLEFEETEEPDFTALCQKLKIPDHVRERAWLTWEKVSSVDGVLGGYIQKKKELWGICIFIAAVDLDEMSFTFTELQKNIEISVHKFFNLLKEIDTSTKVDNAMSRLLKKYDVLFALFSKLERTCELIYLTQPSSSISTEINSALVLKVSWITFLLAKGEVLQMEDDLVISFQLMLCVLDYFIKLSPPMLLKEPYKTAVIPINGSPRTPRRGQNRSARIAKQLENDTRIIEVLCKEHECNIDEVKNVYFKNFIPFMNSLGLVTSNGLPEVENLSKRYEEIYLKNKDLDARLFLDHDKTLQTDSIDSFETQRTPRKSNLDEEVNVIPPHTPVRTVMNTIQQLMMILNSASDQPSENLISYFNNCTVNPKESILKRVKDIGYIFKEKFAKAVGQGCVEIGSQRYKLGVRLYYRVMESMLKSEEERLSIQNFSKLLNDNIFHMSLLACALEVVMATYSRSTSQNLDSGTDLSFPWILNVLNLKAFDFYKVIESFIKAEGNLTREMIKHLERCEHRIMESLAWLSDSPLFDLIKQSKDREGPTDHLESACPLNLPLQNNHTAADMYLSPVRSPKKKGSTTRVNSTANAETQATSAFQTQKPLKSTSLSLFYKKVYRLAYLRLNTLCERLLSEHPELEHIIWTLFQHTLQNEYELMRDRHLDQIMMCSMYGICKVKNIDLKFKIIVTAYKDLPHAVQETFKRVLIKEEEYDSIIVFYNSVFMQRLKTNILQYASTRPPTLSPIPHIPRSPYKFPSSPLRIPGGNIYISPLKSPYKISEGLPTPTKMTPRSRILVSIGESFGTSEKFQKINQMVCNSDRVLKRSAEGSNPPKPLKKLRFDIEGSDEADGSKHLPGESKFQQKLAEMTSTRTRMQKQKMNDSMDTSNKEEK

[4] = biological target: T3, wild-type full length Rb (A9), …; experiment: immunoprecipitation with anti-RIZ antiserum, SDS-PAGE, autoradiography
[5] = biological target: T3, wild-type full length Rb (A9), …; experiment: 35S-labeled full-length Rb preincubated with RIZ (215-462), immunoprecipitated with anti-ce1
[6] = biological target: T4, 56 kD fragment of Rb produced by bacterial expression from p56Rb plasmid (UniProt P06400 379-928); experiment: peptide competition against labeled RIZ (1-575) for 56 kD Rb
T4 construct: range 379-928; Expressed in E. coli; also called 56 kD Rb
T4 sequence (looked up): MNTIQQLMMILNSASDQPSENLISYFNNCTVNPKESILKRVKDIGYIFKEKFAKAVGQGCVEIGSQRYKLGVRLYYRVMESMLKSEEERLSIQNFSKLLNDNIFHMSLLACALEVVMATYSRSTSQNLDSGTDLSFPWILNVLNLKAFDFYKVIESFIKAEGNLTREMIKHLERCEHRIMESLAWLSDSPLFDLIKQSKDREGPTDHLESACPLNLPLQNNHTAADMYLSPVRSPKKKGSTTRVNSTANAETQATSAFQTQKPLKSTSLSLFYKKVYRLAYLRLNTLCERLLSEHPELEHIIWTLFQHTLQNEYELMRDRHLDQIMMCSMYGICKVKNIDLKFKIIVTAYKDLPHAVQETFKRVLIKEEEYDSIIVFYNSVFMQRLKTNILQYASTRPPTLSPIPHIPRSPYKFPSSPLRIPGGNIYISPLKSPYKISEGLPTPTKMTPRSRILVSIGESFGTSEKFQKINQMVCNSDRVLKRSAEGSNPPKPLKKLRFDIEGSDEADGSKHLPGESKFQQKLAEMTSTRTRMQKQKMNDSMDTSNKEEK

E1A: adenoviral E1A protein; source was cell lysate from 293 stably transfected to express E1A [reference compound]
inhibition of binding of GST-RIZ (215-462) to hypophosphorylated Rb [1]: inhibited binding

O=c1ccn([C@@H]2O[C@H](COP(=O)(O)OP(=O)(O)OP(=O)(O)O)[C@@H](O)[C@H]2O)c(=O)[nH]1 [UTP]
effect of excess unlabeled nucleotide on binding of RIZ GTPase to radiolabeled GTP [2]: did not effect binding

Nc1ncnc2c1ncn2[C@@H]1O[C@H](COP(=O)(O)OP(=O)(O)OP(=O)(O)O)[C@@H](O)[C@H]1O [ATP]
effect of excess unlabeled nucleotide on binding of RIZ GTPase to radiolabeled GTP [2]: did not effect binding

Nc1nc2c(ncn2[C@@H]2O[C@H](COP(=O)(O)OP(=O)(O)OP(=O)(O)O)[C@@H](O)[C@H]2O)c(=O)[nH]1 [GTP]
effect of excess unlabeled nucleotide on binding of RIZ GTPase to radiolabeled GTP [2]: inhibited binding

Nc1ccn([C@@H]2O[C@H](COP(=O)(O)OP(=O)(O)OP(=O)(O)O)[C@@H](O)[C@H]2O)c(=O)n1 [CTP]
effect of excess unlabeled nucleotide on binding of RIZ GTPase to radiolabeled GTP [2]: did not effect binding

B1: 35S labeled fragment of RIZ from amino acid position 1-575 (other)
chain: MHQNTESVAATETLAEVPEHVLRGLPEEVRLFPSAVDKTRIGVWATKPILKGKKFGPFVGDKKKRSQVRNNVYMWEVYYPNLGWMCIDATDPEKGNWLRYVNWACSGEEQNLFPLEINRAIYYKTLKPIAPGEELLVWYNGEDNPEIAAAIEEERASARSKRSSPKSRRGKKKSHENKNKGIRTHPTQLKASELDSTFANMRGSAEGPKEEDERPLASAPEQPAPLPEVGNQDAVPQVAIPLPACEPQPEVDGKQEVTDCEVNDVEEEELEEEEELEEEEEEELGEDGVEEADMPNESSAKEPEIRCEEKPEDLLEEPQSMSNEAREDSPDVTPPPHTPRAREEANGDVLETFMFPCQHCERKFATKQGLERHMHIHISTINHAFKCKYCGKRFGTQINRRRHERRHETGLKRRPSMTLQSSEDPDDGKGENVTSKDESSPPQLGQDCLILNSEKTSQEVLNSSFVEENGEVKELHPCKYCKKVFGTHTNMRRHQRRVHERHLIPKGVRRKGGLLEEPQPPAEQAPPSQNVYVPSTEPEEEGETDDVYIMDISSNISENLNYYIDGKIQTNSSTS
modifications: 35S label
notes: In vitro transcribed/translated from Spe I linearized template
binding result [3]: binds

B2: glutathionine S-transferase (GST) fused to a fragment of RIZ from amino acid position 245-573 (other)
chain: CEPQPEVDGKQEVTDCEVNDVEEEELEEEEELEEEEEEELGEDGVEEADMPNESSAKEPEIRCEEKPEDLLEEPQSMSNEAREDSPDVTPPPHTPRAREEANGDVLETFMFPCQHCERKFATKQGLERHMHIHISTINHAFKCKYCGKRFGTQINRRRHERRHETGLKRRPSMTLQSSEDPDDGKGENVTSKDESSPPQLGQDCLILNSEKTSQEVLNSSFVEENGEVKELHPCKYCKKVFGTHTNMRRHQRRVHERHLIPKGVRRKGGLLEEPQPPAEQAPPSQNVYVPSTEPEEEGETDDVYIMDISSNISENLNYYIDGKIQTNSS
notes: Expressed from pKG7.1S in E. coli and purified on glutathione agarose; also called GSTZ13; not shown: glutathione S-transferase from vector pGEX-KG
binding result [4]: binds

B3: RIZ (215-462) with the GST portion removed by thrombin cleavage (other)
chain: PLASAPEQPAPLPEVGNQDAVPQVAIPLPACEPQPEVDGKQEVTDCEVNDVEEEELEEEEELEEEEEEELGEDGVEEADMPNESSAKEPEIRCEEKPEDLLEEPQSMSNEAREDSPDVTPPPHTPRAREEANGDVLETFMFPCQHCERKFATKQGLERHMHIHISTINHAFKCKYCGKRFGTQINRRRHERRHETGLKRRPSMTLQSSEDPDDGKGENVTSKDESSPPQLGQDCLILNSEKTSQEVLN
binding result [5]: binds

B4: RIZ-Pep, 11 amino acid peptide EIRCEEKPEDL representing a portion of the cr2 motif of RIZ (peptide)
peptide: EIRCEEKPEDL
notes: Synthetic peptide; also called cr2 peptide
binding result [6]: binds
